According to patent publication US20220040297A1 (Chugai, published 2022):
Numbering of substitutions follows the chain as printed. Names may count otherwise.

B1: GLS3000 F55K (antibody, IgG1, name in Kabat numbering, V domains shown)
VH: QVQLVESGGGVVQPGRSLRLSCAASGFTFSNAWMHWVRQAPGKGLEWVAQIKAKSNNYATYYAESVKGRFTISRDDSKNSLYLQMNSLKTEDTAVYYCRYVHYGAYYGVDAWGQGTTVTVSS
VL: DIVMTQSPLSLPVTPGEPASISCRSSQSLVHSNRNTYLHWYQQKPGQAPRLLIYKVSNRKSGVPDRFSGSGSGTDFTLKISRVEAEDVGVYYCGQGTQVPYTFGQGTKLEIK
B2: GLS3000 G89A (antibody, IgG1, name in Kabat numbering, V domains shown)
VH: B1 VH
VL: B1 VL with K60F, G94A
B3: CE115HA000 Y58D (antibody, name in Kabat numbering, V domains shown)
VH: B1 VH with Y61D
VL: B1 VL with K60F
B4: CE115HA000 Y100Q (antibody, name in Kabat numbering, V domains shown)
VH: B1 VH with Y106Q
VL: B1 VL with K60F
B5: CE115HA000 Y100V (antibody, name in Kabat numbering, V domains shown)
VH: B1 VH with Y106V
VL: B1 VL with K60F
B6: CE115HA000 T28S (antibody, name in Kabat numbering, V domains shown)
VH: B1 VH with T28S
VL: B1 VL with K60F
B7: CE115HA000 W33A (antibody, name in Kabat numbering, V domains shown)
VH: B1 VH with W33A
VL: B1 VL with K60F
B8: CE115HA000 Y97P (antibody, name in Kabat numbering, V domains shown)
VH: B1 VH with Y103P
VL: B1 VL with K60F
B9: CE115HA000 V11L (antibody, name in Kabat numbering, V domains shown)
VH: B1 VH with V11L
VL: B1 VL with K60F
B10: CE115HA000 Y58L (antibody, name in Kabat numbering, V domains shown)
VH: B1 VH with Y61L
VL: B1 VL with K60F
B11: CE115HA000 V100cP (antibody, name in Kabat numbering, V domains shown)
VH: B1 VH with V109P
VL: B1 VL with K60F
B12: CE115HA000 Y55G (antibody, name in Kabat numbering, V domains shown)
VH: B1 VH with Y58G
VL: B1 VL with K60F
B13: CE115HA000 Y100W (antibody, name in Kabat numbering, V domains shown)
VH: B1 VH with Y106W
VL: B1 VL with K60F
B14: CE115HA000 Y100D (antibody, name in Kabat numbering, V domains shown)
VH: B1 VH with Y106D
VL: B1 VL with K60F
B15: CE115HA000 Y97D (antibody, name in Kabat numbering, V domains shown)
VH: B1 VH with Y103D
VL: B1 VL with K60F
B16: CE115HA000 T57N (antibody, name in Kabat numbering, V domains shown)
VH: B1 VH with T60N
VL: B1 VL with K60F
B17: CE115HA000 T57A (antibody, name in Kabat numbering, V domains shown)
VH: B1 VH with T60A
VL: B1 VL with K60F
B18: CE115HA000 Y58Q (antibody, name in Kabat numbering, V domains shown)
VH: B1 VH with Y61Q
VL: B1 VL with K60F
B19: CE115HA000 Y58K (antibody, name in Kabat numbering, V domains shown)
VH: B1 VH with Y61K
VL: B1 VL with K60F
B20: CE115HA000 V95S (antibody, name in Kabat numbering, V domains shown)
VH: B1 VH with V101S
VL: B1 VL with K60F
B21: CE115HA000 W33F (antibody, name in Kabat numbering, V domains shown)
VH: B1 VH with W33F
VL: B1 VL with K60F
B22: CE115HA000 Y55D (antibody, name in Kabat numbering, V domains shown)
VH: B1 VH with Y58D
VL: B1 VL with K60F
B23: CE115HA000 Y100aH (antibody, name in Kabat numbering, V domains shown)
VH: B1 VH with Y107H
VL: B1 VL with K60F
B24: CE115HA000 W33D (antibody, name in Kabat numbering, V domains shown)
VH: B1 VH with W33D
VL: B1 VL with K60F
B25: CE115HA000 Y100aQ (antibody, name in Kabat numbering, V domains shown)
VH: B1 VH with Y107Q
VL: B1 VL with K60F
B26: CE115HA000 Y59E (antibody, name in Kabat numbering, V domains shown)
VH: B1 VH with Y62E
VL: B1 VL with K60F
B27: CE115HA000 Y59D (antibody, name in Kabat numbering, V domains shown)
VH: B1 VH with Y62D
VL: B1 VL with K60F
B28: CE115HA000 Y58A (antibody, name in Kabat numbering, V domains shown)
VH: B1 VH with Y61A
VL: B1 VL with K60F
B29: CE115HA000 Y100A (antibody, name in Kabat numbering, V domains shown)
VH: B1 VH with Y106A
VL: B1 VL with K60F
B30: CE115HA000 V100cA (antibody, name in Kabat numbering, V domains shown)
VH: B1 VH with V109A
VL: B1 VL with K60F
B31: CE115HA000 Y59A (antibody, name in Kabat numbering, V domains shown)
VH: B1 VH with Y62A
VL: B1 VL with K60F
B32: CE115HA000 Y55S (antibody, name in Kabat numbering, V domains shown)
VH: B1 VH with Y58S
VL: B1 VL with K60F
B33: CE115HA000 Y58N (antibody, name in Kabat numbering, V domains shown)
VH: B1 VH with Y61N
VL: B1 VL with K60F
B34: CE115HA000 Y100aS (antibody, name in Kabat numbering, V domains shown)
VH: B1 VH with Y107S
VL: B1 VL with K60F
B35: CE115HA000 T57I (antibody, name in Kabat numbering, V domains shown)
VH: B1 VH with T60I
VL: B1 VL with K60F
B36: CE115HA000 Y59S (antibody, name in Kabat numbering, V domains shown)
VH: B1 VH with Y62S
VL: B1 VL with K60F
B37: CE115HA000 Y58S (antibody, name in Kabat numbering, V domains shown)
VH: B1 VH with Y61S
VL: B1 VL with K60F
B38: CE115HA000 Y100P (antibody, name in Kabat numbering, V domains shown)
VH: B1 VH with Y106P
VL: B1 VL with K60F
B39: CE115HA000 W33H (antibody, name in Kabat numbering, V domains shown)
VH: B1 VH with W33H
VL: B1 VL with K60F
B40: CE115HA000 V95D (antibody, name in Kabat numbering, V domains shown)
VH: B1 VH with V101D
VL: B1 VL with K60F
B41: CE115HA000 W33Y (antibody, name in Kabat numbering, V domains shown)
VH: B1 VH with W33Y
VL: B1 VL with K60F
B42: CE115HA000 T57K (antibody, name in Kabat numbering, V domains shown)
VH: B1 VH with T60K
VL: B1 VL with K60F
B43: CE115HA000 Y100aF (antibody, name in Kabat numbering, V domains shown)
VH: B1 VH with Y107F
VL: B1 VL with K60F
B44: CE115HA000 W33L (antibody, name in Kabat numbering, V domains shown)
VH: B1 VH with W33L
VL: B1 VL with K60F
B45: CE115HA000 Y100aG (antibody, name in Kabat numbering, V domains shown)
VH: B1 VH with Y107G
VL: B1 VL with K60F

Each binder was assayed against T1, CD3ε homodimer protein (human, UniProt P07766 23-126, limits assumed) (assay: SPR, CD3e immobilized).
T1 construct: Whole entry named for the human CD3 epsilon chain
T1 sequence (P07766 23-126 limits assumed): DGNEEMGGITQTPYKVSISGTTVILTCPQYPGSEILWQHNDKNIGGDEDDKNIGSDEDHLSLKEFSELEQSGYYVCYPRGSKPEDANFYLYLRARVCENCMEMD
Method: Each one-amino acid altered form constructed, expressed, and purified in the paragraph (6-2) was evaluated using Biacore T200 (GE Healthcare Japan Corp.). An appropriate amount of CD3ε homodimer protein was immobilized onto Sensor chip CM4 (GE Healthcare Japan Corp.) by the amine coupling method. Then, the antibody having an appropriate concentration was injected thereto as an analyte and allowed to interact with the CD3ε homodimer protein on the sensor chip. Then, the sensor chip was regenerated by the injection of 10 mmol/L glycine-HCl (pH 1.5). The assay was conducted at 25° C., and HBS-EP+ (GE Healthcare Japan Corp.) was used as a running buffer. […] Each parameter was calculated using Biacore T200 Evaluation Software (GE Healthcare Japan Corp.).
Specifically, when the amount of the GLS3000-containing antibody bound was defined as X and the amount of the L chain one-amino acid altered form bound was defined as Y, a value of Z (ratio of amounts bound)=Y/X was used.

Row | Binder | KD ratio to GLS3000
1 | B1 | 1.22
2 | B2 | 1.3

What follows are binders tested against T2, CD3ε homodimer protein (human, UniProt P07766 23-126, limits assumed, sulfo-tag or biotin label in some ECL assays) (assay: SPR, CD3ε homodimer on chip;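 further: biacore SPR with antibody variants flowed as analyte over amine-coupled CD3ε homodimer on a CM chip, bound amount of each single-residue H chain variant over that of parent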).
T2 construct: also called human CD3ε homodimer protein; CD3 (CD3ε)
T2 sequence (P07766 23-126 limits assumed): as above

Row | Binder | ratio of amounts bound vs CE115HA000
3 | B3 | 0.11
4 | B4 | 0.8
5 | B5 | 0.8
6 | B6 | 0.91
7 | B7 | 0.1
8 | B8 | 0.11
9 | B9 | 1
10 | B10 | 0.27
11 | B11 | 0.8
12 | B12 | 0.55
13 | B13 | 1.03
14 | B14 | 0.52
15 | B15 | 0.24
16 | B16 | 0.97
17 | B17 | 0.98
18 | B18 | 0.19
19 | B19 | 0.3
20 | B20 | 0.22
21 | B21 | 0.65
22 | B22 | 0.45
23 | B23 | 0.9
24 | B24 | 0.1

Row | Binder | ratio of amounts bound vs CE115HA000
25 | B25 | 0.56
26 | B26 | 0.66
27 | B27 | 0.7
28 | B28 | 0.22
29 | B29 | 9.9
30 | B30 | 0.48
31 | B31 | 0.35
32 | B32 | 0.26
33 | B33 | 0.33
34 | B34 | 0.64
35 | B35 | 0.61
36 | B36 | 0.94
37 | B37 | 0.18
38 | B38 | 0.48
39 | B39 | 0.13
40 | B40 | 0.24
41 | B41 | 0.66
42 | B42 | 1.32
43 | B43 | 0.87
44 | B44 | 0.1
45 | B45 | 1.23
